Earlier results, collected in paper PMC4610412.

Target: pCdc25C (Homo sapiens) (UniProt P30307)
Experiment: ITC

pCdc25C (Homo sapiens), sequence (P30307 2-473): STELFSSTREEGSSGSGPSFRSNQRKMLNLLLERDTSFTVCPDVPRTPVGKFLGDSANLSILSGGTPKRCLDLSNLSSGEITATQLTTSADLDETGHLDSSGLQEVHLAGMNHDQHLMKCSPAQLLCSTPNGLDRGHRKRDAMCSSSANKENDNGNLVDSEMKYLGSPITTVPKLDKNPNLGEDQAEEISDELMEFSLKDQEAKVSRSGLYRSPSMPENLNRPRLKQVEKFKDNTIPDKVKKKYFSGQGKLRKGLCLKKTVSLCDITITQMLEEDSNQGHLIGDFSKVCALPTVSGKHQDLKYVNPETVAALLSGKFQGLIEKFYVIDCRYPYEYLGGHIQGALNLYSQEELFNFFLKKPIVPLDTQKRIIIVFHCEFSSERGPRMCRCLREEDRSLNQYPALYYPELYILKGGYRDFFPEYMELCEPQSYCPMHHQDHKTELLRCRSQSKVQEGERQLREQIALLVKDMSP
Pin1 WW, sequence (Q13526 2-42): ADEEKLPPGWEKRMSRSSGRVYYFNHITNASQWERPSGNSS
Pin1 PPIase, sequence (Q13526 52-163): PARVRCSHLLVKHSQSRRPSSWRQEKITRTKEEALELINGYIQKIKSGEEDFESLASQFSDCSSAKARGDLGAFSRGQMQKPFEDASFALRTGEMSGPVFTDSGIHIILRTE

Row | Substance | Kd
1 | Pin1 WW (from UniProt Q13526) | 13 µM
2 | Pin1 PPIase (from UniProt Q13526) | 1000 µM
